assay: yeast display, Sf9 membrane polyspecificity reagent, FACS + sequencing; frameworks hold sequencing errors
Procedure, shortened: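 In a synthetic yeast display library (Saccharomyces cerevisiae BJ5465), nanobody expression was induced with galactose for 36–48 hours. FACS gates were set low and high (top ~1%) using anti-HA fluorescence for expression and streptavidin fluorescence for binding of the Sf9 membrane reagent. Each polyreactivity label is drawn from the gate of origin.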

Sequence	polyreactivity (PSR sort gate)
QVQLVESGGGLVQAGGSLRLSCAASGRILIRYAMGWYRQAPGKERELVASISTRGASTSYADSVKGRFTISRDNAKNTVYLQMNSLKPEDTAVYYCNARGSYPPYRSYGYWGQGTQVTVSS	low polyreactivity
QVQIVESGGGLVQAGGSLRLSCAASGSIFTYYAMGWYRQAPGKERELVAAINWSGGSTYYADSVKGRFTISRDNAKNTVYLQMNSLKPEDTAVYYCATDYYARRHSPRYDYWGQGTQLTVSS	low polyreactivity
QVQLVESGGGLDQAGGSLRLSCAASGSIFGYAMGWYRQAPGKERELLAAITDSGGRTYYADSVKGRFTISRDNAKNTVYLQMNSLKPEDTAVYYCAKTWYPWSRYGYYRRYDSWGQGTQVNVSS	low polyreactivity
QVQLVESGVGLVESGGSLRLSCASSGSTFVYTAMCWYRQSPGKERELVAAISWSGGSTYYADSVKGRFTISRDNAKKTVYLQMNSQKPEDTAVYYCAADGNPPAAMDYRGQGTQVTVSS	low polyreactivity
QVQLVESGGGLVQAGGSLRLSCAASGRTFNSYPMGWYRQAPGTERELVAAINYRGTSTYYSDSVKGRFTISRDNAMNTVYLQMNSLKPEDTAVYYCNARQTRSSRINYPEGIYNYWGQGTQVNVSS	high polyreactivity
QVQLVESGGGLVQAGGSLRLSCAASGRTFRYYAMGWYRPATGKERELVADISSTGRTYYADSVKGRFTISRDNAKNTVYLQMNSLKPEDTAVYYCNADYFFEFDYWGQGTQVTVSS	low polyreactivity
QVQLVESGGGLVQAGCSLRLSCAASGFILNWYAMGCYRQAPGKERELVAAISWTTSDTYYADSVKGRFTISRDNAKHTVYLQMNSLKPEDQAVYYCATQGYISFPPPAYYEYNYWGQGTQETVSS	low polyreactivity
QVHLVESGGGLVLAGGSLRLSFAASGSTFDSYAMRCYRQQPGKQREFVAVINSGGSTNYADSVNGRFTISRDYSKNTVYLQMNSLKPEDTAVYYCAAEERYRWHYGGWGYWYDYWGQGTQVTVSS	low polyreactivity
QVLLLESGGGVVQAGGSHRLRCAASGRIFCTNTMGWYRQAPGKERELVAVISSSGDSTYYADSVKGRFTISRDNAKNTVYLQINSLKPEDTAVYYCAKGNNWISRLMDYWGQGTQVTVSS	low polyreactivity
QVQLVESGGGLVQAGGSLRLSCAASGRTFRYYAMGWYRQAPGKERELVAAISRRGGSTFYADSVKGRFTISRDNAKNTVYLQMNSLKPEDTAVYYCAAADRYASDTGGYWGQGTQVTVSS	high polyreactivity
QFQLVESGGGLVQAGGSLRLSCAASGLIFYFYAMGWYRQAPGKEREFVAAISSGGDTYYADSVKGRFTISRDNAKNTVYLQMNSLKPEDNAVYYCAARRYRRGRSDYWGQGTQVTVSS	high polyreactivity
QVQLVESAGGLVQAGGSLSLSCAASGFNFKGYAMGSYRQAPGKERELVAAISSSGTSTYYADSVKGRFTISRDNEKNTVYLQMNSLKPEDTAVYYCARVSKRTWSGYYYWGQGTQVTVSS	high polyreactivity
QVQLVESGGGLVQAGGSLRLSCAASGFTFYWNTMGWYRPAPGKERELVAAISWSGGDTDYADSVKGRFTISRDNAKNTVYLQMNSLKPEDTAVYYCNSIYVSDRSSAVSFDYWGQGTQVNVSS	low polyreactivity
QVHLVESGVGLVQAGGSLRLSCAASGITFGYYAMGWYRQAPGKERENVAAITRRGGSTYYADSVKGRFTISRDNAKNTVYLQMNSLKPVDTAVYYCAAVSYRYWFIEDNYWGQGTQVTVSS	high polyreactivity
QVQLVESGGGLVQAGGSLRLSCAASGSIFGYYAMGWYRQAPGKERELVASISGSGGTTYFADSVKGRFTISRDNAKNTVYLQMNSLKPEDTAVYYCAARRSIYGYPFVTSRRGYWGQGTQVTVSS	high polyreactivity
QVQLVESGGGLFQAGGSLRLSCAASGSTFYNYAMGWYRQAPGIERELVAAISSGGSTNYADSVKGRFTISRDNAKYTVFLQMNSLKPEDSAVYYCARRHRVYASRNGHDYWGQGTQVTVSS	low polyreactivity
QVQLVESGGGLVQAGGSLRLSCAASGRIFGVNAMGGYRQAPGKERELVAAIFSGGSTYYADSVKGRFTISRDNAKNTVYLQMNSLKPEDTAVYYCAKLYTVAIVWSAYDYWGQGTQVTVSS	low polyreactivity
QVQLVESVGGLVQAGGSLRLSCAASGSIFRNYAMGWYRQAPGKERELVAAITYRGGTTYYADSVKGRFTISRDNAKNTVYLQMNSLKPEDTAVYYCNTASVSRLYGEYDYWGQGTQVTVSS	high polyreactivity
QVQLVESGGGLVQAGGSLRLSCAASGSTFREYAMGWSRQAPGKERELVAAISSGDSTNYADSVKGRFTISRDNAKNTVYLQMNSLKPEDTAVYYCAADAPGAAAVQNDYWGQGTQVTVSS	low polyreactivity
QVQLVESGGGLVQAGGSLRLSCAASGRTLPAYAMGWYRQAPGKERELVAAISWGGGSTYYADSVKGRFTISRDNAKNTVYLQMNSLKPEDTAVYYCAVAGYWFAVAEYDYWGQGTQVTVSS	low polyreactivity
QVQLVESGGGLVQAGGSLRLSCAASGFTFYRYAMGWYRQAPGNERELVAAISSGGRTTYADSVKGRFTISRDNANNTVYLQMNSLKPQDTAVYYCVFVYVYDYYYWGQGTQVTVSS	high polyreactivity

Sequence	polyreactivity (PSR sort gate)
QVQLQDSGGGLVQAGGSLRQNCETSGTIFVLWYMGWYRQAPGKERELVATINDGANTYYADSVKGRFTINRDNANSTVYMKMNSLIPEDTAVYYCAVYAIIVWGLGYWGQGTQVTVSS	high polyreactivity
QVQLVESGGGLVQAGGSLRLSCAASGRYFGYNAMGWYRQAPGKERELVAAITGSGGSTYYADSVKGRFTISLDNAKHTVYLQIISLKPEDTAVYYCAADRFYHSAEYDYWGQGTQVTVSS	low polyreactivity
QVQLVESGGGLVQAGGSLRLSCAASGFIFYPYAMGWYRQAPGKERELVAVITSGGRTYYADSVKGRFTISRDNAKNTVYLQMNSLKPEDTAVYYCAAQYIQAWRLFDYWGQGTQVTVSS	low polyreactivity
QVQLVESGGGLVQAGGSLRLSCAASGIFRRYAMGWYRQAPGKERELVATITSGGSTNYADSVKGRFTISRDNAKNTVYLQMNSLKPEDTAVYYCNALYGARRYTRWYTGMDYWGQGTQVTVSS	high polyreactivity
QVQLVDSGGGLVQAGGSLRLSCPASGYTIVYNAMGCYRQGPGKEREFVAAITWSGTSTRYADSVKGRFTISRDKAKNTVYLQMNSLKPDDTAVYYCSARFPLVRYNYWGQGTQVTVSS	high polyreactivity
QVQLVESGGGLVQAGGSLRLSCAASGLIFHPYTMGWYRQAPGKERELVAAITSTGGSTYYADSVKGRFTISRDNAKNTVYLQMNSLKPEDTAVYYCATDYGYYDYWGQGTQVTVSS	low polyreactivity
QVQLVESGGGIVQAGGSLRLAVLPPDLPSTLNDMGWSTQAPGKERELVAAITRGGSTNSADSVKGRFTISRDNAKNTVYLQMNILKPEDTAVYYCDKDSLVDHVGGYDYWGQATQVTVSS	low polyreactivity
QVQLVESGGGLVQAGGSLRLSCAASGYTFQKYAMGWYRQAPGKERELVAAITRSGTRTYYADSVKGRFTISRDNAKNTVYFQMNSLKPEDTAVYYCAAETYYSIYDYWGQGTQVTVSS	high polyreactivity
QVQHVESGGGLVQAGGSLRLSSAASGFTFYGYAMGWYRPARGNERELVATIRRSTGSTYYADSVKGRFTISRDNAKYSVYLQMNSLKPDDTAVYYCATRVWFPITSYDYWGQGTQVTVSS	low polyreactivity
QVQLVDSGGGLVQAGGSLRLICAASGITFYYYAMGWYRQAPGKERELVAAISSRGGSTYYADSVKGRFTISRDNAKNTVYLQMNSLKPEDTAVYYWAALYGVSEEDDYWGQGTQVTVSS	high polyreactivity
QVQLVESGGGLVQAGGSLRLSCAASGRIFKYYVMGWYRQAPGKERELVAAISSGSGSTYYADSVKGRFTISRDNAKNTVYLQMNSLKPEDTAVYYCNALSSWRRTYGSRYDYWGQGTQVTVSS	high polyreactivity
QVQLVESGGGLVQAGGSLRLSCAASGSSFYDNAMGWYRQAPAKERELVAAITWDGDGTYYADSVKGRFTISRDNAKNTVYLQMNSLKPEDTAVYYCAADYYLVGFDYYYWYGYWGQGTQVTVSS	low polyreactivity
QVQLVESGGGLVQAGGSLRLSCAASGFIFAGYAMGWYRQAPGKERELVAAISWDGGSTYYADSVKGRFTISRDNAKNTVYLQMNSLKPEDTAVYYCARARYGKYGYWGQATQVTVSS	low polyreactivity
QVQLVESGGGLVQAGGSLRLSCAASGRIFIGYAMGWYRQAPGKERELVAAITSGGRTYYADSVKGRFTISRDNAKNTVYLQMNSLKPEDTAVYYCYRAAFRYRYDYWGQGTQVTVSS	high polyreactivity
QVQLVESGGGLVQAGGSLRLSCAASGSTFELYAMGWYRQAPGKERDFVAAITYDSTYYADSVKGRFTISRDNAKNTVYLQMNSLKPEDTAVYYCAAAYWHYYYGWDMYYWGQGTQVTVST	high polyreactivity
QVQLVESGGGLVQAGGSLRLSCAASGSIFNVYVMGWYRQAPGKERELVASITWTTGSTYADSVKGRFTISRDNAKNTVYLQMNSLKPEDTAVYYCNAEFPEDTSDDYWGQGTQVTVSS	low polyreactivity
QFQLVESGGGLVQAGVSLRLSCAASGSTFYYGMVCSRHAPRKERELVAAISSRGGTTYYADSVKGRFTISRDNAKNTVYLQMNSLKPEDTAVYYCAAPVPYYVPSRNEGDYWGQGTQVTVSS	low polyreactivity
QVQLVESGGGLVQAGGSLRLSCAASGLTLDYYARGWYRQAPGKDRELVAVIRGRSGSTYYADSVKGRFTISRDNAKNTVYLQMNSLKPEDTAVYYCARVTTYGDYYWGQGTQVTVSS	high polyreactivity
QVQLVESGGGLVQAGGSLRLSCAASGFIFAWYAMGWYRQAPGKERELVAAITSSGTSTYYADSVKGRFTISRDNAKNTVYLQMNSLTPEDTAVYYCAAVTKRYLAYDYWGQGTQVTVSS	high polyreactivity
QVQLVESGGGLVQAGGSLRLSCAASGSTFNANAMGWYRQAPGKERELVAGISSGGSTYADSVKGRFTISRDNAKNTVYLQMNSLKPEDSAVYYCNADYYSWYPTFYWYDYWGQGSQVTVSS	high polyreactivity

From the nanobody polyreactivity screen of Harvey et al. (2022)
